No end group written: not given here.
Key:
human PAR-4 = target: T1, human PAR-4 (human, UniProt Q96RI0 48-385); assay: cell-based or functional assay
T1 sequence (looked up): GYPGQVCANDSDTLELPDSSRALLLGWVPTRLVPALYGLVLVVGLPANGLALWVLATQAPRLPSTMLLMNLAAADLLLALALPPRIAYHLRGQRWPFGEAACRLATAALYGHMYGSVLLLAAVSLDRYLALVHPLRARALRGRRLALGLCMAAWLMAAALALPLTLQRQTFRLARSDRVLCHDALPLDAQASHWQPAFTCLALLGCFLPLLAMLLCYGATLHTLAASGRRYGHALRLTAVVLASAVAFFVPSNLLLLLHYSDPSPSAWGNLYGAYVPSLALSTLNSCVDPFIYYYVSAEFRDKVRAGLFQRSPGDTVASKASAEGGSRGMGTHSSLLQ

[1] = target: T2, guinea pig proteinase-activated receptor 4 (PAR-4) (guinea pig (Cavia porcellus)); assay: cell-based or functional assay
T2 chain: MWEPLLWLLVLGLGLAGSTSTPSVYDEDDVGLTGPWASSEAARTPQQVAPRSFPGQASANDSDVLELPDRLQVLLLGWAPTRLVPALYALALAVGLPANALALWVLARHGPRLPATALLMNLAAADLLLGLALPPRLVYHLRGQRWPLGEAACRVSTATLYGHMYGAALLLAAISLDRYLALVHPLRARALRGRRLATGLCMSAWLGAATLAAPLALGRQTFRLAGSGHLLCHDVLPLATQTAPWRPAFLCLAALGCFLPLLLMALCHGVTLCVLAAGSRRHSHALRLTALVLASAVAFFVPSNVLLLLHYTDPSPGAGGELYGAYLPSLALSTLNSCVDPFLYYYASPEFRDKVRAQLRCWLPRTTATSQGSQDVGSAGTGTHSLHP

aggregation of human gel filtered platelets, EC50 (human PAR-4): 140 µM
aggregation of guinea pig gel filtered platelets, EC50 [1]: 174 µM
Binder: SFPGQA-NH2 [guinea pig PAR-4 activating peptide SFPGQA-NH2]
